# Test results reported in paper PMC3997499, “Resolving Hot Spots in the C-Terminal Dimerization Domain that Determine the Stability of the Molecular Chaperone Hsp90” (PLoS ONE, 2014).
# “And” between values parts separate entries of the source, which are not always exact repeats. Equal values may be shown once.
# How the values were obtained:
# [1] = molecular target: the molecule itself; assay: SEC-MALS; Bio SEC-5 150 Å column, HPLC buffer without glycerol (10 mM MES, 200 mM KCl, 1 mM EDTA, pH 6), samples 2.4 mg/ml; dimer to monomers
# [2] = molecular target: the molecule itself; assay: as above; remark: listed apart in the source
# [3] = molecular target: the molecule itself; assay: SEC; Superdex SD200 10/300, 4°C, HPLC buffer (10 mM MES/KOH, 200 mM KCl, 1 mM EDTA, 1% glycerol) pH 6, 110 µL purified CTD, triplicates; apparent stoichiometry from calibration with globular protein standards
Protein,stoichiometry N [1],fraction of species 1 (monomer mass) [2],fraction of species 2 (dimer mass) [2],stoichiometry N [3],binding result [3]
"hHsp90 CTD hot spot mutant I CTD^Y689A/I692A/L696A (domain or fragment, human Hsp90 alpha isoform (UniProt P07900), C-terminal domain, residues 563-732, with Y689A, I692A and L696A; Same construct as m1 (pTEV21-a), made by site-directed mutagenesis) not shown",2,0.77,0.23,4,
"hHsp90 CTD hot spot mutant II CTD^I688A/Y689A/I692A (domain or fragment, human Hsp90 alpha isoform (UniProt P07900), C-terminal domain, residues 563-732, with I688A, Y689A and I692A; Same construct as m1 (pTEV21-a), made by site-directed mutagenesis) not shown",2,0.69,0.31,4,
"C-terminal domain (CTD) of human heat shock protein of 90 kDa (hHsp90), wild type (domain or fragment, human Hsp90 alpha isoform (UniProt P07900), C-terminal domain, residues 563-732; synthetic codon-optimized DNA; Vector pTEV21-a; also called CTD wt; wt) not shown",2,0,1,4 and 8,
"hHsp90 CTD cold spot mutant CTD^S658A/Q682A (domain or fragment, human Hsp90 alpha isoform (UniProt P07900), C-terminal domain, residues 563-732, with S658A and Q682A; Same construct as m1 (pTEV21-a), made by site-directed mutagenesis; also called S658A/Q682A cold spot mutant) not shown",,,,,binds
